Assay [1] addresses RNA polymerase II in isolated early elongation complexes (human (endogenous in HeLa)) (UniProt P24928).
The target is the same in assay [2]. The source holds these as a separate data set.

The substance “Gdown1 CTD(197–368) (from UniProt P0CAP2-1 197-368) (domain or fragment)” registered an amount of Gdown1 CTD titrated onto EECs that completely blocks elongation stimulation by 0.1 pmol TFIIF, in vitro transcription, 7-min chase in assay [1] of 20 pmol.

In assay [2], “Gdown1 ΔLPDKG deletion mutant (from UniProt P0CAP2-1 1-368) (natural protein)” yielded a block of TFIIF (0.1 pmol)-dependent runoff by 1 pmol ΔLPDKG mutant, in vitro transcription on isolated EECs, 7-min chase (blocks TFIIF acting on Pol II) of 90%; a termination region as percent of total counts with TTF2 (0.04 pmol) and 1 pmol ΔLPDKG mutant (72% with TTF2 alone), in vitro transcription on isolated EECs (blocks TTF2 acting on Pol II) (% of the total counts) of 50.

These data come from publication PMC4007455.
